Laboratory results taken from the nanobody polyreactivity screen of Harvey et al. (2022).

Assay: yeast display, Sf9 membrane polyspecificity reagent, FACS + sequencing; frameworks hold sequencing errors
Summary of the method: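 In a synthetic yeast display library (Saccharomyces cerevisiae BJ5465), nanobody expression was induced with galactose for 36–48 hours. FACS gates were set low and high (top ~1%) using anti-HA fluorescence for expression and streptavidin fluorescence for binding of the Sf9 membrane reagent. Each polyreactivity label is drawn from the gate of origin.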

Sequence	polyreactivity (PSR sort gate)
QVQLVESGGGLVQAGGSLRLSCAASGRTIGYNDLGWYRQAPGKERELVAAIDWSGGSTYYADSVKGRFTISRDNAKNTVYLQMNSLKPEDTAVYDCAALVWRDEYDYLGQGTQVTVSS	low polyreactivity
QVQLVESGGGLVQAGGSLRLSCAASGRTIKYTAMGWYRQAPGKERDLVAAITYSGGSTYYADSVKGRFTISRDNAKNTVYLQMNSLKPEDTAVYYCGQGTQVTVSS	low polyreactivity
QVQLVESGGGLVQAGGSLRLSCAASGRTIPFNAMGWYRQAPGKERELVAAISSSAGRTYYADSVKGRFTISRDNAKNTVYLQMNSLKPEDTAVYYCAARLYGRYRYDYWGHGTQVTVSS	low polyreactivity
QVQLVESGGGLVQAGGSLRLSCAASGRTIPNVMGWYRQAPGKERELVAAISSSVGSTSYADSVKGRFTISRDNAKNTVYLQMNSLKPEDTAVYYCAARYYYRDWVGIISTYYYWGQGTQVTVSS	high polyreactivity
QVQLVESGGGLVQAGGSLRLSCAASGRTIPTYDMGWYRQAPGKERELVASIRSGGRTKYADSVKGRFTISRVNAKNTVYLQMNSLKPEDTAVYYCAADRRAYYYSFDYWGQGTQVTVSS	low polyreactivity
QVQLVESGGGLVQAGGSLRLSCAASGRTIRGYAMGWYRQAPGKEREFVASITWNSVSTSYADSVKGRFTISRDNAKNTVYLQMNSLKPEDTAVYYCNRRTGSYGRTPVGKGEYYYWGQGTQVTVSS	high polyreactivity
QVQLVESGGGLVQAGGSLRLSCAASGRTIRHNAMGWYRQAPGKERELVAAISRSGGSTYYADSVKGRFTISRDYAKNTVYLQMNSLKPEDTAVYYCAAGYHIIYTPEYYYWGQGTQVTVSS	high polyreactivity
QVQLVESGGGLVQAGGSLRLSCAASGRTIRNNAMGWYRQAPGKERDLVASITRSGGSTYYADSVKGRFTISRDNANNSVSLQLNSLKPEDTSVFYCNRVAHSLTYPTDHEFNYWGQGTQVTVSS	high polyreactivity
QVQLVESGGGLVQAGGSLRLSCAASGRTIRTYTMGWYRQAAGKERELVAAISWSGSSTYYADSVKGRFTISRDNAKNTVYLQMNSLKPEDTAVYYCAARGLYDYGYWGQGTQVTVSS	high polyreactivity
QVQLVESGGGLVQAGGSLRLSCAASGRTIRWYTMGWYRQAPGKERELVAGISSSGGSTYYAESVKGRYTISRDYAKNTVYLQMNSLKPEDTAVYYCAASAAYYGFYKSVSYEYWGQGTQLTVSS	low polyreactivity
QVQLVESGGGLVQAGGSLRLSCAASGRTIWYYAMGWYRQAPGKESELVAAISWSGGTTFYADSVKGRFTISRDNAKYTVYLQMNSLKPEDTAVYYCAKKCIGYQEWIHSTRRYDYWGQGTQVTVSS	low polyreactivity
QVQLVESGGGLVQAGGSLRLSCAASGRTIYGYAMGWYRQAPGKERELVAAISWTGGRTYYADSVKGRFTISRDNAKNTVYLQMNSLKPEDTAVYYCNARRRGDSGDGYIYGYWGQGTQVNVSS	high polyreactivity
QVQLVESGGGLVQAGGSLRLSCAASGRTIYRYAMGWYRQAPGKERELVAAITRRGVNTYYADSVKGRFTISRDNAKNTVYLQMNSLKPEDTAVYYCAAENGALVTYGYWGQGTQVTVSS	high polyreactivity
QVQLVESGGGLVQAGGSLRLSCAASGRTIYYYARGWYRQAPGKERELVAAITLRGGSTYYADSVKGRFTISRDNAKKTVYLQMNSLKPEDTAVYYCAKESTVRRYDYWGQGTQVTVSS	low polyreactivity
QVQLVESGGGLVQAGGSLRLSCAASGRTLAFNAMGWSRQAPGKERELGAGIRNGTSTNYADSVKGRFTISRVNAKNTVYLQMNCLKPEDTADYYCNVPYYLQSYLSGYDYWGQGTQVSVSS	low polyreactivity
QVQLVESGGGLVQAGGSLRLSCAASGRTLARNAMGWYRQAPGKERELVARIRDSGGSKYYADSVKGRFTISRDNAKNTVYLQMNSLKPEDTAVYYCAARSRLVYSYYTYWGQGTQVTVSS	high polyreactivity
QVQLVESGGGLVQAGGSLRLSCAASGRTLAYYVMGWYRQAPGKERELVAAISGRGGRTNYADSVKGRFTISRDNAKNTVYLQMNSLKPEDTAVYYCAAYRTGYNVDYYYWGQGTQVTVSS	high polyreactivity
QVQLVESGGGLVQAGGSLRLSCAASGRTLDVNAMGWYRQAPGKERELVAAISYSGGITYYADSVKGRFTISRDNAKNTVYLQMNSLKPEDTAVYYCAVVGGYPSYTVDYWGQGTQVTVSS	low polyreactivity
QVQLVESGGGLVQAGGSLRLSCAASGRTLFFYAMGLYRQAPGKERELVAAISSSGTRTYYADSVKGRFTISRDNAKNTVYLQMNSLIPEDTAVYYCNKVKYYRTGGMEYWGQGTQVTVSS	high polyreactivity
QVQLVESGGGLVQAGGSLRLSCAASGRTLGDYGMGWYRQAPGKETQLVAVITSGGSPYYADSVKGRFTISRDNAKNTVYLQMNSLKPEDNAVYFCNARHPYYTVQTGGYDYWGQGTQVTVSS	low polyreactivity
QVQLVESGGGLVQAGGSLRLSCAASGRTLGGYAMVWYRQAPGTERELVAAITRRGGSTYYADSVKGRFTISRDNAKNTVYLQMYSLKQEDTAVYYCAARYLYSDEYWDKFYYWGQGTQVTVSS	high polyreactivity
QVQLVESGGGLVQAGGSLRLSCAASGRTLGGYTMGWYRQAPGKERELVAAITTGGSTNYADSVKGRFTISRDNAKNTVYLQMKSLIPEDTAVYYCATDLVFDKRYWYDFWGEGTQVTVSS	low polyreactivity

Sequence	polyreactivity (PSR sort gate)
QVQLVESGGGLVQAGGSLRLSCAASGRTLGPNAMGWYRQAPGKERELVAGITGRGGITYYTDSEKGRFTISRDNAKNTVYLQMNSLKPEDTAVYYCAARRYRFAGDYRMYYWGQGTQVTVSS	high polyreactivity
QVQLVESGGGLVQAGGSLRLSCAASGRTLGSYAMGWYRQAPGKETELVAAIRGSGVSTYYADSVKGRFTISRDNAKNTVYLQMNSLNPEDTAVYYCAARSYIRVWKKGAVQRSVYYWGQGTQVTVSS	high polyreactivity
QVQLVESGGGLVQAGGSLRLSCAASGRTLGVNAMGWYRQAPGKERELVAAISTRGTTTNYADSVKGRFTISRDNAKNTVYLQMNSLKPEDTAVYYCAVRSRTPRAYYYWGQGTQVTVSS	low polyreactivity
QVQLVESGGGLVQAGGSLRLSCAASGRTLGVYTMGWYRQAPGKERELVATISWDGGITYYADSVKGRFTISRDNAKNTVYLQMNSLKPEDNAVYYCAAVDHSYGWMDYWGQGTQVTVSS	low polyreactivity
QVQLVESGGGLVQAGGSLRLSCAASGRTLGYYAMGWYRQAPGKERELVAAISRSGGSTYYADSVKGRFTISRDHAKNTVYLQMNSLKPEDTAVYYCAATYGPSRYRYDYWGQGTQVTVSS	high polyreactivity
QVQLVESGGGLVQAGGSLRLSCAASGRTLIWYTMGWYRQAPGKERELVAAITSGGSTYYADSVKGRFTISRDNAKNTVYLRMNSLKPEDTAVYYCAAVYPAAPRAYGYWGQGTQVTVSS	low polyreactivity
QVQLVESGGGLVQAGGSLRLSCAASGRTLKKNAMGWYRQAPGKEMELVAAITSSTGITYYADSVKGRFTISRDNAKNTVYLQMNSLKPEDTAVYYCAADPPRTLSLIFYSREWSYDYWGQGTQVTVSS	low polyreactivity
QVQLVESGGGLVQAGGSLRLSCAASGRTLKVYAMGWYRQAPGKERELVAAINNGGSTNYADSVKGRFTISRDNAKNTVYLQMNSLKPEDTAVYYCNAVYYARYRKYTYYYWGQGTQVTVSS	high polyreactivity
QVQLVESGGGLVQAGGSLRLSCAASGRTLLKNAMGWYRQAPGKEREFVAAITYSSGSTYYADSVKGRFTISRDNAKNTVYLQMNSLKPEDTAVYYCAKTNFSQSSRYNYDYWGQGTQVTVSS	low polyreactivity
QVQLVESGGGLVQAGGSLRLSCAASGRTLNYNVLGWYRQAPGKERELVASITSRGGSTRYADSVKGRFTISRDHAKNTVYLQMNSLKPEDTAGYYCAARYTTARSSYDYWGQGTQVTVSS	high polyreactivity
QVQLVESGGGLVQAGGSLRLSCAASGRTLRGNAMGWYRQAPGKEREFVAAITRRGGSTYYADSVKGRFTISRDNAKNTVYLQMNSLKPEDTAVYYCAAEGYDWIYLYYGLGYWGQGTQVTVSS	low polyreactivity
QVQLVESGGGLVQAGGSLRLSCAASGRTLRGYAMGWYRKAPGKEREFVAAISSRGGSTYYADSVKGRFTISRDNAKNTVYLQMNSLKPEDTAVYYCAALRPVFATSHARDYWGQGTQVTVSS	high polyreactivity
QVQLVESGGGLVQAGGSLRLSCAASGRTLRHYAMGWYRQAPGKERELVAAISSTGSSTYYADSVKGRFTISRDNAKITVYLQMNSLKPEDTAVYYCAADKYTWDAGGVVYWGQGTQVTVSS	low polyreactivity
QVQLVESGGGLVQAGGSLRLSCAASGRTLRHYTMGWYRQAPGKERELVAAITSRGSSTYYAESVKGRFTISRDNAKNTVYLQMNSLTPEDTAVYYCNATYVRLTQYFPRLYYPYYFWGQGTQVTVSS	low polyreactivity
QVQLVESGGGLVQAGGSLRLSCAASGRTLRIYAMGWYRQAPGKERELVAAITSSGRTNYADSVKGRFTISRDNAKNTVYLQMNSLKPEDTAVYYCSADYYYYVAGVHYDYWGQGTQVTVSS	low polyreactivity
QVQLVESGGGLVQAGGSLRLSCAASGRTLRRYAMGSYREAPGKERELVATISGRGGSTYYADSVMGRFTISRDNAKNTVYLQMNSLKPEYTAVYYCNRVTSRVSGRYSYDYWGQGTQVTVSS	high polyreactivity
QVQLVESGGGLVQAGGSLRLSCAASGRTLRRYAMGWYRQAPGKERELVAAISRSGSSTYADSVKGRFTISRDNAKNTVYFQMNSLKPEDTAVYYCNAVYGYSAHGYYYRYDYWGQGTQVTVSS	high polyreactivity
QVQLVESGGGLVQAGGSLRLSCAASGRTLRSYAMGWYRQAPGKERELVAAITRTGGDTYYADSVKGRFTISRDNANNTLYLQMNSLKPEDTAVYYCAAQRYRGYDYWGQGTQVTVSS	high polyreactivity
QVQLVESGGGLVQAGGSLRLSCAASGRTLRVNTMGWYRQAPGKERELVAAISSGGSRTNYADSVKGRFTISRDNAKNTVYLQMNSLKPEDTAVYYCNKYNRFVYSPPSVYWGQGTQVTVSS	high polyreactivity
QVQLVESGGGLVQAGGSLRLSCAASGRTLRWYAMGWYRQAPGKERELVAAIRWSGGSTYYADSVKGRFTISRDNAKNTVYLQMNSLKPEDTAVYYCAAYYVARDRRYPKAYSYEYWGQGTQVTVSS	high polyreactivity
QVQLVESGGGLVQAGGSLRLSCAASGRTLRYNTKGWYRQAPGKERELVADISWTGGSTYYADSVKGRFTISRDNAKNTVYLQMNSLKPEDTAVYYCAADEWWYPWYDYWGQGTQVTVSS	high polyreactivity
